From PMC6403468

Target: VLDLR fused to monomeric GFP (VLDLR_mGFP) (mouse)
Assay: FRET or BRET; time-resolved fluorescence anisotropy imaging (TR-FAIM, homo-FRET) of mGFP-tagged proteins in living HEK293 cells, rFRET from global fit, Imaging Medium; basal state, and before and after 1 uM AP20187, FL-Reelin or R3-6 (up to 90 nM)

rFRET: 0.0858
Substance: VLDLR fused to monomeric GFP (VLDLR_mGFP) (receptor)
